{"source": "patent CN117736316A", "binders": {"B1": {"name": "单克隆抗体anti-SFTSV-NP-mab1 (antibody, V domains shown)", "VH": "EVQLEESGGGLVQPGGSRKLSCAVSGFTFSNFGIHWVRQAPEKGLEWVAYISSGGTTIYYADTVKGRFTISRDNPMNTLFLQMTSLRSEDTAMYHCARSDYFGMMDYWGQGTSVTVSS", "VL": "DIVITQTPSSLSASLGDRVTISCRASQDIRNYLNWYQQKPDGTVKLLVYYTSRLHSGVPSRFSGSGSGTDFSLTISNLEQEDIATYFCQQAHTLLTFGAGTKLEIK"}}, "biological_target": "HIS-SFTSV-NP抗原 (recombinant SFTSV NP antigen expressed in E. coli BL21(DE3) from pET-30a) (新布尼亚病毒 (SFTSV))", "experiment": "indirect ELISA, NP antigen coated"}
{"binder": "B1", "values": [{"measurement": "工作浓度", "value": 15.6, "unit": "ng/mL"}, {"measurement": "检测限 (of NP protein)", "value": 1.95, "unit": "ng/mL"}]}
